In series [1] the target is T1, iC3b (Homo sapiens, UniProt P01024;P01024;P01024 23-667;749-1303;1321-1663). Description: filter binding.
The next series addresses C3b (Homo sapiens, UniProt P01024;P01024 23-667;749-1663). Description: filter binding.
Series [2] has as its target T1, iC3b. Briefly: EMSA. (In EMSA bound probe runs differently from free probe, usually more slowly.)

T1 sequence (P01024 23-667, chain 1 of 3): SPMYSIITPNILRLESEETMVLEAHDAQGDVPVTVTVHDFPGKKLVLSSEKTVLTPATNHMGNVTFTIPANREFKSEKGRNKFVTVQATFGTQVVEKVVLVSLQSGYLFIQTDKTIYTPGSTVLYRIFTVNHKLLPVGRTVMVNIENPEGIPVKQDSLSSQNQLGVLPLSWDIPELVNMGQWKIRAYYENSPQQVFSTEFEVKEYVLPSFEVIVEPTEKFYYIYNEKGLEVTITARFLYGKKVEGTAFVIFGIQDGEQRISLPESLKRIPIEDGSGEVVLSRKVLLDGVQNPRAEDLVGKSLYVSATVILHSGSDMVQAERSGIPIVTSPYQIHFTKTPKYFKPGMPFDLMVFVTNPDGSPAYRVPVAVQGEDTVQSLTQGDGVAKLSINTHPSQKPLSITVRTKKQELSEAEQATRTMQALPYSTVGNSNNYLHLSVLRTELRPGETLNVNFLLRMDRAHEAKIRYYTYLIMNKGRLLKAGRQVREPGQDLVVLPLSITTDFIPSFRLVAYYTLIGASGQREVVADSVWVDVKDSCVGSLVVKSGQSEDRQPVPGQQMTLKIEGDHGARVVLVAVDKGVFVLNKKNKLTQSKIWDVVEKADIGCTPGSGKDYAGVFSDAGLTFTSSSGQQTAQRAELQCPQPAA
T1 sequence (P01024 749-1303, chain 2 of 3): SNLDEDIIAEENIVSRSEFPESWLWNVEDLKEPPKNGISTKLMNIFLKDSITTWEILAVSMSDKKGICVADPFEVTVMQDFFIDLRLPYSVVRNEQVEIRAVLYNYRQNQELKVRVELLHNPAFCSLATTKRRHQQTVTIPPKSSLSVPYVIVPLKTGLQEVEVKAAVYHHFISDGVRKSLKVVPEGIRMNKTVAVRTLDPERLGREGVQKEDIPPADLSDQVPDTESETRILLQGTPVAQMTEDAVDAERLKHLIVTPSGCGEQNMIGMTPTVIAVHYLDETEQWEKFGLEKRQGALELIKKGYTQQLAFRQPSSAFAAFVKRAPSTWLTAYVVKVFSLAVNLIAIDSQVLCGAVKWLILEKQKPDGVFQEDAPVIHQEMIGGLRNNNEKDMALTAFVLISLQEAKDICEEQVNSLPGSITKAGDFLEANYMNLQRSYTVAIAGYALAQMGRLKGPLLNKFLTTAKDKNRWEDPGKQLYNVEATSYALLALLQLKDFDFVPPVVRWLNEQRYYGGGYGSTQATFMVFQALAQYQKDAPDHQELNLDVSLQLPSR
T1 sequence (P01024 1321-1663, chain 3 of 3): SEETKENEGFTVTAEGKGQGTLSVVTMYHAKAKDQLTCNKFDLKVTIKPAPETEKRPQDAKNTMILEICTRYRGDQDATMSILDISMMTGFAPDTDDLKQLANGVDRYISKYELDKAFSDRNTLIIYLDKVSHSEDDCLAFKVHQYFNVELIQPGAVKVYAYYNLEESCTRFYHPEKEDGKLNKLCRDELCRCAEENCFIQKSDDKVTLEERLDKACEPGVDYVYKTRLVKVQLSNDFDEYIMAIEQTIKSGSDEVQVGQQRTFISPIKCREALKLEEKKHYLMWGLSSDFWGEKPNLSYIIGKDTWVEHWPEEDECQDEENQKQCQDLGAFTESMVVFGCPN
Chain of C3b (P01024 23-667, chain 1 of 2): as the sequence (P01024 23-667, chain 1 of 3) above
Chain of C3b (P01024 749-1663, chain 2 of 2): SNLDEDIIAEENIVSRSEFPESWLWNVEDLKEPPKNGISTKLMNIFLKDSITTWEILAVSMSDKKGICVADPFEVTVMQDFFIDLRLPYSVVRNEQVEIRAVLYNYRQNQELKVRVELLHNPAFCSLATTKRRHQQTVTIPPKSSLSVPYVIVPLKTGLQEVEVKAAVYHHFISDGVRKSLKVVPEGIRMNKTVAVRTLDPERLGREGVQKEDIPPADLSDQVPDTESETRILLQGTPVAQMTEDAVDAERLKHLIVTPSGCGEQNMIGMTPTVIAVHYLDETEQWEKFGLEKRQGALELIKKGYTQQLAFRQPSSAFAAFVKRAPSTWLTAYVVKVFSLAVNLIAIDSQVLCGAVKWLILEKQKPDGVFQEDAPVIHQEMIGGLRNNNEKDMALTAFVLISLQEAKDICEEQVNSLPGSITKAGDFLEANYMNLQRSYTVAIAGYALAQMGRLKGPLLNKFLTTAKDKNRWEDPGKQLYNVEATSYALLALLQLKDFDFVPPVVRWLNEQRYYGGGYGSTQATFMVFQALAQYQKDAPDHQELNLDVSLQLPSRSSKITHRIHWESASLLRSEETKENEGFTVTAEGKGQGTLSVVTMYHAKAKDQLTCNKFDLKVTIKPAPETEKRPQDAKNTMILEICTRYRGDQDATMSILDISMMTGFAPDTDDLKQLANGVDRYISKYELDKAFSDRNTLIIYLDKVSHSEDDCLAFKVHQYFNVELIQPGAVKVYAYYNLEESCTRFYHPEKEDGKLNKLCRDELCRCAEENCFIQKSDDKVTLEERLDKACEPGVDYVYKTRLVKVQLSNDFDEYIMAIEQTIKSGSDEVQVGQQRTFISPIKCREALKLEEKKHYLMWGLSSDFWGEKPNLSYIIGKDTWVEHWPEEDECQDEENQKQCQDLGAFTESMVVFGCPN

B1: Apt[C3-GFP] (structured_RNA)
RNA: GGGAGCCUGAUGGCAGGGCGAAUUGGGUGGGGAAAGUCCUUAAAAGAGGGCCACCACAGAAGCAAUGGGCUUCUGGACUCGGUCCCGCUCGGCUAGAAGAAUAUGACGGAUUGACCGUAUCAGGGUAGCCGAGC
As to B1, the binding result with iC3b [1] and with C3b was “binds” throughout.

B2: AptC3-2 (structured_RNA)
RNA: GGGAGAAUUCAACUGCCAUCUAGGCAAAUCCGCGAGCGCCGGUACCGGUGGCGCAUGCCCACACAGCACUAAACGAGUACUACAAGCUUCUGGACUCGGU
In the case of B2, the binding result with iC3b [2] is on record as “no binding”.
